B1: LOV1 fragment of Arabidopsis thaliana phototropin2 (domain or fragment, UniProt P93025 117-265, looked up)
chain: FPRVSQELKTALSTLQQTFVVSDATQPHCPIVYASSGFFTMTGYSSKEIVGRNCRFLQGPDTDKNEVAKIRDCVKNGKSYCGRLLNYKKDGTPFWNLLTVTPIKDDQGNTIKFIGMQVEVSKYTEGVNDKALRPNGLSKSLIRYDARQK
notes: phototropin2 (phot2), Arabidopsis thaliana, LOV1 fragment, residues 117-265 of the 915-residue protein; also called phot2 LOV1
B2: Asp720Asn-mutated full-length phototropin2 of Arabidopsis thaliana (natural protein)
chain: MERPRAPPSPLNDAESLSERRSLEIFNPSSGKETHGSTSSSSKPPLDGNNKGSSSKWMEFQDSAKITERTAEWGLSAVKPDSGDDGISFKLSSEVERSKNMSRRSSEESTSSESGAFPRVSQELKTALSTLQQTFVVSDATQPHCPIVYASSGFFTMTGYSSKEIVGRNCRFLQGPDTDKNEVAKIRDCVKNGKSYCGRLLNYKKDGTPFWNLLTVTPIKDDQGNTIKFIGMQVEVSKYTEGVNDKALRPNGLSKSLIRYDARQKEKALDSITEVVQTIRHRKSQVQESVSNDTMVKPDSSTTPTPGRQTRQSDEASKSFRTPGRVSTPTGSKLKSSNNRHEDLLRMEPEELMLSTEVIGQRDSWDLSDRERDIRQGIDLATTLERIEKNFVISDPRLPDNPIIFASDSFLELTEYSREEILGRNCRFLQGPETDQATVQKIRDAIRDQREITVQLINYTKSGKKFWNLFHLQPMRDQKGELQYFIGVQLDGSDHVEPLQNRLSERTEMQSSKLVKATATNVDEAVRELPDANTRPEDLWAAHSKPVYPLPHNKESTSWKAIKKIQASGETVGLHHFKPIKPLGSGDTGSVHLVELKGTGELYAMKAMEKTMMLNRNKAHRACIEREIISLLDHPFLPTLYASFQTSTHVCLITDFCPGGELFALLDRQPMKILTEDSARFYAAEVVIGLEYLHCLGIVYRDLKPENILLKKDGHIVLANFDLSFMTTCTPQLIIPAAPSKRRRSKSQPLPTFVAEPSTQSNSFVGTEEYIAPEIITGAGHTSAIDWWALGILLYEMLYGRTPFRGKNRQKTFANILHKDLTFPSSIPVSLVGRQLINTLLNRDPSSRLGSKGGANEIKQHAFFRGINWPLIRGMSPPPLDAPLSIIEKDPNAKDIKWEDDGVLVNSTDLDIDLF
notes: phototropin2 (phot2), Arabidopsis thaliana, full length, residues 1-915, with Asp720Asn; also called phot2; full-length phot2

Biological target: the molecule itself
Experiment: SAXS; in solution at 293 K, at least three specimen concentrations, extrapolated to infinite dilution; in the dark (D450), under blue-light irradiation (S390) and after dark reversion; apparent molecular weight from I(S=0,C=0) against hen egg-white lysozyme or the buffer's scattering

Protein | stoichiometry N
B1 | 2
B2 | 2

From publication PMC7555306, “Domain Organization in Plant Blue-Light Receptor Phototropin2 of Arabidopsis thaliana Studied by Small-Angle X-ray Scattering” (International Journal of Molecular Sciences, 2020)
